{"source": "patent US20200299367A1", "about": "(ARIZONA BOARD OF REGENTS ON BEHALF OF ARIZONA STATE …, published 2020)", "binders": {"B1": {"name": "F9T scFv (scFv)", "scFv": "QVQLQESGGGVVQPGRSLRLSCAASGFTFSTSGMHWVRQAPGKGLEWVAFILHDGSDKYYADSVKGRFTISRDNSKNTLYLQMNSLRAEDTAIYYCAKSQRELLGAEYLQNWGQGTLVTVSSGGGGSGGGGSGGGGSQSALTQPASVSGSPGQSITISCTGTSSDVGGYKYVSWYQQHPGKAPKVMIYDVSNRPSGVSNRFSGSKSGNTASLTISGLQAEDEADYYCSSYTSSSTLVFGGGTKVTVLGAAAHHHHHHGAAEQKLISEED", "notes": "Expressed from pIT2 with a hexahistidine tag and a c-myc tag; the format is named under assay; also called F9T nanobody; F9 (clone before frame-shift repair)"}, "B2": {"name": "D4G scFv (scFv)", "scFv": "QVQLVASGGDLIQPGGSLRLSCAASGFTFNNYWMTWVRQAPGKGLEWVANIKQDGGEKYYVDSVKGRFTISRDNAKTSLYLQMNSLRAEDTAVYYCAKESYSTGWFDHWGQGTLVTVSSGGGGSGGGGSGGGGSNFMLTQDPAVSVALGQTVRITCQGDSLRKYYTSWYQQKPGQAPLLVMYAKNNRPSGIPDRFSGSSSGNTASLTITGAQAEDEADYYCDSRDSSGDHWVFGGGTKLTVLGAAAEQKLISEEDLNGAA", "notes": "also called D4 (clone before frame-shift repair)"}, "B3": {"name": "G12C scFv (scFv)", "scFv": "RVQLVESGAEVTKPGASVRVSCKASGYTFSRYDINWVRQASGQGLEWMGWINPNSGNTGYAQKFQGRVTMTRNISITTAYMELSSLRSEDTAVYYCARGLPEFDPWGQGTLVTVSSGGGGSGGGGSGGGGSHVILTQDPAVSVALGQTVRITCQGDSLRSYYASWYQQKPGQAPVLVIYGKNNRPSGIPDRFSGSSSGNTASLTITGAQAEDEADFYCNSRDSSGTHLEVFGGGTKVTVLGAAAEQKLISEEDLNGAA", "notes": "also called G12 (clone before frame-shift repair)"}}}
{"biological_target": "T1, bovine serum albumin (bovine, UniProt P02769 25-607)", "T1 construct": "also called BSA", "T1 sequence (P02769 25-607 limits assumed)": "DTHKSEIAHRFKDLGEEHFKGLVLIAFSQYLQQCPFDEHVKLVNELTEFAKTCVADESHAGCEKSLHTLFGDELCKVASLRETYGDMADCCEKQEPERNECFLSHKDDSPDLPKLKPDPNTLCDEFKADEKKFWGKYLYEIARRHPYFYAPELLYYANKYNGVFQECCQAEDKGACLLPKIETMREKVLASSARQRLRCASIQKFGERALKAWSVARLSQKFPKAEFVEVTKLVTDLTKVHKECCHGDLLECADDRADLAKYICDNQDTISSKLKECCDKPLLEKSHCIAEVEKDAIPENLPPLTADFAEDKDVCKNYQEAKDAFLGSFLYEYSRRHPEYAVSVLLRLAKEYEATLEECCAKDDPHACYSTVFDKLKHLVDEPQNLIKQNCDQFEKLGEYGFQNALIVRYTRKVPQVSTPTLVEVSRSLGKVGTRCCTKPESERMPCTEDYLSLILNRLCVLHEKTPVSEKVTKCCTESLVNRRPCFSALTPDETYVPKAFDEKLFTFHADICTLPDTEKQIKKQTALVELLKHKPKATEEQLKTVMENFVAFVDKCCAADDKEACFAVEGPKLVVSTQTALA", "assay": "AFM single clone screening, phage on mica coated with antigen"}
{"binder": "B1", "binding result": "no binding"}
{"binder": "B2", "binding result": "no binding"}
{"binder": "B3", "binding result": "no binding"}
